Laboratory results: the supplement of paper PMC9170038

Test system: MS2 coat protein
Experiment: apparent KD of MS2 coat protein; designed switch direction (-1 OFF switch, 1 ON switch): -1; higher = weaker reporter binding
How it was run: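 The reported apparent KD is a per-design median over clusters, from curve fits of normalised cluster fluorescence. Protein titrations used SNAP-549-labelled MS2 coat protein, doubled from 0.7 or 1.5 nM to 3 µM, in Tris-HCl pH 7.5 buffer with KCl, MgCl2, BSA, DTT, tRNA and Tween-20, with no input, 200 uM small-molecule ligand, or an oligonucleotide input. The RNA switches were transcribed on Illumina chips by stalled E. coli RNA polymerase.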

[1] = Eterna round: R95, input ligand: microRNA oligo, concentration not stated
[2] = input ligand: microRNA oligo, concentration not stated
[3] = Eterna round: R95, input ligand: FMN 200 uM
[4] = Eterna round: R95, input ligand: none

Sequence | apparent KD of MS2 coat protein (input ligand: FMN 200 uM) [nM] | apparent KD of MS2 coat protein (input ligand: none) [nM] | apparent KD of MS2 coat protein [1] [nM] | apparent KD of MS2 coat protein [2] [nM] | apparent KD of MS2 coat protein [3] [nM] | apparent KD of MS2 coat protein [4] [nM]
GAUUCGGGAGGAUAUACAUGAGGAUCACCCAUGUAUAUAUAAUAUAAUAAAUUAAAAUGUAGAAGGUUUGGGUC [-13.5, -9.6 kcal, 38% A] (Eterna round: R97, puzzle: Exclusion 3) | 22.8 | 23.2 |  |  |  | 
GACUGCCGAGGAUAUACAUGAGGAUCACCCAUGUGCUUCAGUAUCGAAAGAUGCAUGGGUAGAAGGCGGUAGUC [LRO-Excl3-10] (puzzle: Exclusion 3) |  |  | 172 |  |  | 
UGUUGUUACGCAGGAUAUGAGGAUCACCCAUAGAAGGAUAACGAAAGUGAAGGUCUGAGGAUUACCCAGAAGGGCGGGUUAACA [pwkr exNG2 2xF5 2xFMN.2] (Eterna round: R96, puzzle: Exclusion NG 2) | 294 | 92 |  | 74.2 |  | 
GUAGAGUCAGGAUAUACAAGAUCGAAAGAUCGAAGAUUUAUACAUGAGGAUCACCCAUGUAGAAGGGACUCUAC [ChP 11-04-2015 #4] (puzzle: Exclusion 2) |  |  | 12.4 |  |  | 
UAACCUAUUGUCAGGAUAUCUACGUGGUAUCAUGAGGAGAAGGGACAUGAGGAUCACCCAUGUGGAAGGGAAAA [Beques] (puzzle: Brourd's mod of Exclusion 4) |  |  | 31.1 |  | 60.2 | 48.3
UAUUAAUUAAUUAAUUAAUACAUGAGGAUCACCCAUGUAAUUUAAGAUCCUUAUACAAGCUUUGAUCUCGUAAUUAA [Stov1/4-A2] (Eterna round: R97, puzzle: Sensor, turn-off variant 1) | 861 | 696 |  |  |  | 
UGUCAGAUGGUAGGAUAUCCAUAUUGAGUGACCCUUUCAUAACAUGAGGAUCACCCAUGUCGGUGGGAGAAGGGCCGUAUGGUG [salish99_ExNG02_R04_028] (Eterna round: R96, puzzle: Exclusion NG 2) | 53.7 | 33.8 |  | 21.9 |  | 
UGAUAGAGCCUAGGAUAUUCGGAUCUACUACAAGGAGAAGGAGGUAGUCGGUGACGAACAUGAGGAUCACCCAUGUCGUCCUUC [Eternabot solution 37] (Eterna round: R96, puzzle: Exclusion NG 1) |  |  |  | 61.7 |  | 
GAACUGAGGCAAAGCUUUAGUCGUACAUGAGGAUCACCCAUGUAGGAUAUGGUAGGCAAAGCAUACCAGAAGGACAGAGUGAUC [Mat - Exclusion NG 3 - Mod of JL - D61] (Eterna round: R96, puzzle: Exclusion NG 3) | 877 | 476 |  | 313 |  | 
UCAUGUUUAGAGGAUAUGAUUACUUUGGAGUAAUCAGAAGGCUAGACAUGAGGAUCACCCAUGUCAUAACAUGA [Exclusion 6 - B - 15:c] (puzzle: Exclusion 6) |  |  | 71.5 |  | 75.5 | 61.3
GGUGGACAUGAGGAUCACCCAUGUGAGGAUAUCGGCUGGUACGUGUUGGCUGGCAUCUCGAGAAGGCACAUCGU [Exclusion 1 V64] (Eterna round: R96, puzzle: Exclusion 1) | 181 | 49 |  | 46 |  | 
UUAUUAAAUGUAGGAUAUGCAUAUUAUUAUUAUGCAGAAGGACAUGAGGAUCACCCAUGUAUAUUAUUAUUAUUUAUUAUUUAU [Title] (Eterna round: R96, puzzle: Exclusion NG 1) |  |  |  | 35.5 |  | 
CCGCUCCGUGUAGGAUAUUGGCGUGCCCUGCGCCGAGAAGGACAUGAGGAUCACCCAUGUAUGUUAUUAUCACGCGUGGCGCAU [Design 77] (Eterna round: R96, puzzle: Exclusion NG 1) | 32.2 | 22 |  | 16.7 |  | 
UUUUAGAGAGGAUAUAUUUAGUGAAACAUGAGGAUCACCCAUGUAAUUAAAUGGAUGUAAAUAGAAGGCUCAUUUA [Mat - Exclusion 5 - JL mod - D6] (puzzle: Exclusion 5) |  |  | 23.7 |  | 22.9 | 26.4
